Measured values as given in article doi:10.1101/2020.10.20.346890 (bioRxiv, 2020).
Positions count from the first letter of the chain named. Values joined by “and” are separate entries in the source; they are usually repeats but may differ in a detail not shown here. Identical values can stand only once.

B1: HU-B wild type (natural protein)
chain: MNKSQLIDKIAAGADISKAAAGRALDAIIASVTESLKEGDDVALVGFGTFAVKERAARTGRNPQTGKEITIAAAKVPSFRAGKALKDAVN
B2: LoodHU-B (loop-deleted HU-B) (other)
chain: MNKSQLIDKIAAGADISKAAAGRALDAIIASVTESLKEGDDVALVGFGTFASGGGGSGGGGSKVPSFRAGKALKDAVN
B3: LysrHU-B (lysine-replaced HU-B) (other)
chain: B1 chain with K83A, K86A
B4: LoodLysrHU-B (loop-deleted and lysine-replaced HU-B) (other)
chain: B2 chain with K71A, K74A

Assays:
[1] = target: the molecule itself; test: cross-linking
[2] = target: the molecule itself; test: SEC

| Protein | stoichiometry N [1] | stoichiometry N [2] |
| --- | --- | --- |
| B1 | 4 and 3 and 6 | 2 |
| B2 | 4 | 2 |
| B3 | 2 and 4 |  |
| B4 | 2 and 4 |  |
